Assay results: the DeepSol protein solubility set

experiment: soluble on expression in E. coli; label from the status in PepcDB or PDB records

Soluble on expression in E. coli, not soluble:
MGSDKIHHHHHHMSSGLYLYGIFPDPIPETVTLQGLDSQLVYSQIIDGFTFLYSEAKQEKYLASRRNLISHEKVLEQAMHAGFRTLLPLRFGLVVKNWETVVTQLLQPYKAQLRELFQKLAGRREVSVKIFWDSKAELQAMMDSHQDLKQKRDQMEGKALSMEEVIHIGQLIESNLLSRKESIIQVFFDELKPLADEVIESDPMTEDMIYNAAFLIPWENESIFSQQVESIDHKFDERLRIRYNNFTAPYTFAQIS, MGSDKIHHHHHHMSSSHSKNGNENETAKGITRISVSGYKSLYDECSIEIRPLTILAGANSSGKSSIIQPLLLMKQTLEATYDPGALLLNGANVKFTSAEQLISHLPGKERIQRFVIGIEIEHNQSVKNIFTKFPRQPIDLQEMIVEKNDSKVSLSTDTLPADVVNILPKQYLDFYKSIQDTDLKGKFFFIISRNRCFLEFELYDFINQKKLSSQSFLFNYITPDHTELFGRQIRKIIHIPGLRGNPERNYKTTAVGDAFPGTFDNYVASIIHRWQRPRDKRLQELNNALVSLGLTSKVQAKQLDDTQVELRVARLTRNSDNEKDMVSIADVGFGVSQTLPVLVALLVAEPGQLVYIEQPEIHLHPRAQVAMAEILANAAKRGVKIVVETHSDRLILATQSLVAEGNLSPDLVKLHWFTRQEDGITKINSADLDETGAFGDWPEDFGDVSLQLENRYLSAAEARLIQGTHGG, MGSDKIHHHHHHMSTFLESLRDILSAGESIAMATIANHSGSTPRGDGAQMVIRPDGSILGTIGGGLVEARCIEAGRDLLQRPPGSALFCAFALDNTTAAEAAMVCGGHLTVIIEHAGACHDNVNGCHTGEQTGCSAGHGKGLADILLHACDRVADGLSASFGVEYVWDSPSGQDGANALDKADISGRATTRQTFRPMRAAVHTTGEDSDGQRLSGASTGLALSESGCRLDVMLVPPPRLVIFGAGHVAVPTAHFGHAVGFSVTVIDDRPDFATPERFPDAHLRIPPSFAEAFDGLHVTPDTYLVIMTRGHLHDGEILEQALKTPARYIGMIGSRRKRDALYAELQEQGLDDATLARCHCPIGLDIQAQTPEEIGISIMAELVMHRASA, MGSDKIHHHHHHMSTIQIKQLNFAYDGQAPLFTNTTLDLDTNWHLGLVGRNGRGKTTLLRILQQALPYSGTVTVPLQLQYFPQTLDETQLTLTAAQAITDVAQWQLERELNLLHADPNILWRPFVDLSGGEQTKVRLALLFIQDNGVALIDEPTNHLDLRSRRQVAAYLQQKPGFIVVSHDRDFLDSITDHTLAIQRQQITLYQGNFSTFMTEKERQDQTELAKNGQLKTEITRLKRTTHDKKVWAENKEKSIYGNPHIKDSGHNAGRGFISARAARTMKKSKNLEHRMTKEIDEKESLLKNLEKVDPLTMLPVSTHHHQLVVAEKVQVGFDQPLFQPISFTLTRGDRIAIVGDNGSGKSTLIRALLKQFTGMQSGHLTLAPVSLSLVRQQYTDNRGTLVDFAKQHQLSRETLLNNLRKLGMPRADFNTSIEHLSMGQQKKVELARSLATPGALYVWDEPLNYLDTYNQDQLVAAIKHYQPTMLFVEHDEHFIEQVATKIIRLQP, MGSDKIHHHHHHMSTPIGLGLPPTPPPVLAPRRKTRQLMVGKVGVGSDHPISVQSMTTTKTHDINGTLQQIAQLTATGCDIVRVACPKTVDAEALPIIAKKSPIPVIADIHFQPKYIFAAIDAGCAAVRVNPGNIKEFDGRVKEVAKAAGDAGIPIRIGVNGGSLDKRILDKYHGKATPEALVESAMWEAGLFEEHGFGDIAISVKHSDPVLMVEAYRQLAEQSDYPLHLGVTEAGPKFMGTIKSSVAFGALLSQGIGDTIRVSLSADPVEEIKVGDQILQSLNLRPRKLEIVSCPSCGRAQVDVYSLAEEVTEALDGMEVPLRVAVMGCVVNGPGEARDADLGVASGNGKGQIFVKGEVIKTVPESQIVETLIEEAMRIAEEMDPEVLAAASASGMKAEVKVTK, MGSDKIHHHHHHMTAPMPNLGAVFDTVDPAMAHLAARIDRLILAIDAALTRQLNAILAASEFRALEARWRALDRVLTHAGRDGQVIVRILNVSWRALSRDLDRAVEFDQSHLHKLVYDGEFGMPGGLPFGVLVADYEVSATTDRARGDQVETLSRLAAVAAAAFCPIMLGAAPDLLGVDDFDQIAPYTDLTDAEGRRADPPMIRWRALRDRDDARFIGLVAPRIVLRGPRTRLSPTRADGFTFDEDPHRILSVAGSFAFATTVIAAFRASGWFAAIRGAAQDTDGGGRVAGWPGHDLGTDGHNLSRQSPATLRLTAAQEDALIARGIVPLSSLPLTDEAVFNANPSLHRPTRYDSPVASENARISAMLQYVLCTSRFAHYLKVMMREAIGSVAPPDVIQGHLDDWLRGYCLGNEDAGAELKAEYPLRNAGVEVTPIPGKPGAFAARIHLQPHFQLDDISTSFHLVSEAPAGLERTSA, MGSDKIHHHHHHMTARWRSANGRPAPTRVEVVSDSLTADDANRMASQGIAMLWQGDFHNARQILNAMDRRIGAGKKETAATPAEKFYRHRQSASHRARILGLLLIPLDPGPVVPLRRAPDIRQAAAGAYGDIGEPSVVSLHELVGAIGAHEWRRNGVYVDALEGRIHPHYGTFFPTRSEYVDLVAAAALPSDTLAFDVGTGTGVLAAVLARRGVRSVVATDNEPRAIACAAENFRNLGVQDRAEAVLTDMFPPGRAPLIVCNPPWIPATPHSSLDSAVYDPGSRMLFRFLNELSDHLEPGGEGWLVLSDLAEHLGLRSRGDLLAAIEAAGLKVVERLDTKPTHPKASDRDDPLFEARTAEVTSLWRLVPR, MGSDKIHHHHHHMTAVKHAFTELPTIDIRDLAGDDLARRQAVADAIGRAAREVGFFYITGHGIDPALIAGVREAAKQIFALPMEEKMNYYIGHSKSHKGYVPEGEEIYGSGKPDHKEAFDIGFQAADDHPLVLAGTPLIGANEWPDLPDFRARVLAYYDAVFALGHRLFDAFALALGLPEGYFKPMVTCPPAKLRLIHYPFDASVEDVPGIGAHTDYECFTLLLADQPGLEVLNEESVWIDAPPVKNAAGEEAFVINIGDMLEVLSAGTFVATAHRVRKVPQERYSFPLFFACDYHTLIRPLPTFLAAGEAGEYQELSIGEHMWSQALQTYRYLREKVNRGELQLPERARGTNTFGHLKKQAQQKNP, MGSDKIHHHHHHMTDDQIHQTDWLQRGRDVLDIEAEGIRAVRDRLGPSFESALALLAGCRGRVVVTGLGKSGLVGRKLAATFSSTGSPAFFLHPVEGAHGDMGSLKADDVVIAISNSGETDELNAILPSLRAIGTPIIALTGRADSSLGRGADIVLDCGVPREACPLGLAPTASTTAVLALGDALAVCLIDWKSFTENDFLRYHPGGSLGQRLRLRVAELMHTEGIPVVNEEAVCEEAVLALDKGGFGAVALTDGGGRLTGILTDGDVRRAVLRGTYGPRVGVTHIMTRNPRFARQTQSVAELIDIMEQKAITVLPITDDDHRLVGLVHLHDLLGKGGVTFAG, MGSDKIHHHHHHMTDLADLTCVGPGTPMGTLMRQYWVPAAKSSELKRDGDPMRLMLLGEKLIAFRDSEGRVGVLDHRCPHRCASLFLGRNEESGIRCVYHGWKFDVAGRCVDMPSVPPHQDFKDKVHAKAFRTAERNGLVWVYMGDAAEPPPLPAIEANLVADCEIWCLQRDCNWLQALEGDIDTSHVGFLHVGSLKPDDLADDHPMRPTVLDRAPEYAVTNTAWGTMYGGYRPNDDGQRSWRVAHFMFPFWTQTPNNRFSSRAIARAWVPMDDEHSMLFDITCGVDEGNPAYSSTRKTGEPLFAPFEYAPATTDWFGRWRCVDDRRNDWGIDRELQRNGSQYTGIPNITMQDQAVTESMGPIIDHSYEHLAPTDQMIARTRRRLLLATQALSEQGTLPPGAQDSDVFFGARAGSFLCDPGLPFETAYATQLETATRWAGDKVVS, MGSDKIHHHHHHMTDLEHQVFTQVRAIIANEEQVIGRRGILIPLKKAIIADGDIRNVIDIVSSDPALAAHLLWRSNSAANASVSSKNRSLKDALVRLGQVNIYRYAFTFYLKERLDELPQPYKKLVYGYWALTESIATDAVDSLHHMEGVNINPDEVQTLALFSVFGEIIALTAFAYLNAESEQSFPLSIIKSLIDNQKQTLTLEAFESLGLDEELREEFMIAHNLRQTRNPDSPGLVLRRVLSMRNQLLNPL
